According to US20190105405A1 (MONASH UNIVERSITY, published 2019):
Residue numbers refer to the chain shown, from its start.

Experiments:
PDIA1 (human) = PDIA1 (human) (UniProt P07237); test: co-IP from LIM1215 lysates equalised for ADAM10, mass spectrometry
[1] = target: T1, AxxA mutant human ADAM10 (Cys594 and Cys597 to alanine) (human, UniProt O14672 214-748); test: immunoprecipitation from lysates of ADAM10-/- MEFs transfected with AxxA mutant ADAM10, Western blot α-ADAM10
T1 construct: Expressed in ADAM10-/- mouse embryonic fibroblasts; tested in detergent lysates by IP; also called AXXA mutant ADAM10; AxxA ADAM10; not shown: turbo-myc tag of the OriGene construct
T1 sequence: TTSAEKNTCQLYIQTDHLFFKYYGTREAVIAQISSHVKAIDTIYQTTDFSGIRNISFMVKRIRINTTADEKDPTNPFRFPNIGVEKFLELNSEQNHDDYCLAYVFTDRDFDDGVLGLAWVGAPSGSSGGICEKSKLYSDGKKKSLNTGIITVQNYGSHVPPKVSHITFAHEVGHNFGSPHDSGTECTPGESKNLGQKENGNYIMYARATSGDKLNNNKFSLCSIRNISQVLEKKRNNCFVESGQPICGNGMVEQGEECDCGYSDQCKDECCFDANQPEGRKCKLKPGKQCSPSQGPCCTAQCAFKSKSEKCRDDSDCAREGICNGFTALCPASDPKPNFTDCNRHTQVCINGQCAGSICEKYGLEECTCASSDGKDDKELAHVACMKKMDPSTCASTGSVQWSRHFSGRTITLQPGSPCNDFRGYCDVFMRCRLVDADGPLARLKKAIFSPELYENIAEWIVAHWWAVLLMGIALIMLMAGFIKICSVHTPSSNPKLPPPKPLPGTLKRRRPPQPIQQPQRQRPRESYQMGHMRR

[2] = target: T2, recombinant huADAM10D+C protein (human, UniProt O14672 455-646); test: SPR, BIAcore 3000, huADAM10D+C immobilised, antibody in solution
T2 construct: the whole entry is named here (the bovine construct was 455-646); also called huADAM10D+C domain protein; immobilised recombinant huADAM10D+C
T2 sequence: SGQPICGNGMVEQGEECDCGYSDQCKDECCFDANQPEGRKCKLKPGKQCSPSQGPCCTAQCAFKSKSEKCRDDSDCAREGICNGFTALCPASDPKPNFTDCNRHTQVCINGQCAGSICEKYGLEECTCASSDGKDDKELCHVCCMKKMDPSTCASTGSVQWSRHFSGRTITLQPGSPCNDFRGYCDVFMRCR

Chain of PDIA1 (human) (P07237 18-508 limits assumed): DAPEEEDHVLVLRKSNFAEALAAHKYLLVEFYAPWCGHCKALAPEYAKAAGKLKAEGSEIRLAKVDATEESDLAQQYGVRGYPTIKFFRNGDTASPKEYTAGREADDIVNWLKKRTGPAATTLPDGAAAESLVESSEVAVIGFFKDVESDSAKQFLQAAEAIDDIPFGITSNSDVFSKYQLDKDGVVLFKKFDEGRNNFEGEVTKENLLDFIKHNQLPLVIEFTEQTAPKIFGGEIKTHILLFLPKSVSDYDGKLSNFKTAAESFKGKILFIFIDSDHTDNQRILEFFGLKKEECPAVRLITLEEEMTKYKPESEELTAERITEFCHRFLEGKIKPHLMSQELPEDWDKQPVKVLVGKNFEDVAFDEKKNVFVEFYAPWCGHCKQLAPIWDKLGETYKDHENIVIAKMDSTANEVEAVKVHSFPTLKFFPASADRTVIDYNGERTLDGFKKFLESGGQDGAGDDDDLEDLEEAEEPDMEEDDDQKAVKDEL

“human ADAM10, endogenous full length (from UniProt O14672 214-748) (enzyme)” was tested, and the fold more peptides detected in 8C7 IPs than in 4A11 IPs (PDIA1 (human)) was > 50 fold.

B1: anti-ADAM10 monoclonal antibody 8C7 (murine) (antibody, V domains shown)
VH: EVQLQQSGAELARPGSSVKLSCKASGYTFTNYWLQWVKQRTGQGLEWIGAIYPRDGDAKYSQKFKDKASLTVNESSSTAYMHLSALASEDSAVYYCARANYGLYYAMDRWGQGTSVTVSS
VL: DIFLTQSPANMSVSPGERVSFSCRASQNIGTNIHWYQQRTNGSPRLLIKYASESISGIPSRFSGSGSGTDFILSINTVESEDIAVYFCQQSNRWPFTFGSGTKLEVI
modifications: Alexa647 dye or coupling to Minileak beads in some experiments; not carried by the letters
notes: Murine whole IgG; Used soluble, coupled to Minileak beads, or Alexa647-labelled depending on the experiment; also called mAb 8C7; mAb8C7
B1: no binding [1].

B2: ch8C7, human and mouse chimerised version of mAb 8C7 (antibody, V domains shown)
VH: B1 VH
VL: DIFLTQSPANMSVSPGERVSFSCRASQNIGTNIHWYQQRTNGSPRLLIKYASESISGIPSRFSGSGSGTDFILSINTVESEDIAVYFCQQSNRWPFTFGSGTKLEVIR
notes: The exact V/C junction is not described; also called chimeric 8C7
B2 showed a Kd [2] of 6.71 nM, a koff [2] of 0.00105 s⁻¹ and a kon [2] of 157000 M⁻¹ s⁻¹.

B3: hu8C7, fully humanised version of 8C7 (antibody, human IgG1, kappa, V domains shown)
VH: B1 VH with R13K, T41P, L70I, S76T, A85S, A87R, S91T, S115T
VL: B2 VL with F3V, N10F, F21V, T40P, N41D, G42Q, I72Y, S74T, T77S, I107K
notes: Human IgG1-kappa; humanised variable domains replaced the murine ones in the ch8C7 constructs; The exact V/C junction is not described; also called humanized 8C7
For B3, the Kd [2] was 7.33 nM, the koff [2] was 0.00122 s⁻¹ and the kon [2] was 166000 M⁻¹ s⁻¹.
